The values below are quoted from earlier work in paper PMC5494978.

The Kd is a measure of binding affinity in units of concentration.

This series has as its target Bfd (Pseudomonas aeruginosa) (UniProt Q9HY80).
Chain of UniProt Q9HY80 (Q9HY80 whole entry): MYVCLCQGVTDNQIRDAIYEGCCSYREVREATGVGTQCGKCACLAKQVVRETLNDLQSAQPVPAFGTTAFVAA

In the case of BfrB (from UniProt Q9HY79), the dissociation constant Kd is 3 µM.
